{"source": "the nanobody polyreactivity screen of Harvey et al. (2022)"}
{"assay": "yeast display, Sf9 membrane polyspecificity reagent, FACS + sequencing; frameworks hold sequencing errors", "method_in_brief": "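A synthetic nanobody library was expressed on Saccharomyces cerevisiae BJ5465 by galactose induction for 36–48 hours. The library was stained for 1 hour at 4 °C with 10% biotinylated, detergent-solubilized Sf9 membrane reagent and enriched with streptavidin microbeads before FACS. Low and high (top ~1%) gates were set on anti-HA fluorescence for expression and streptavidin fluorescence for reagent binding, and each polyreactivity label reflects the gate of origin.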"}
{"sequence": "QVQLVESGGGLVQAGGSLRLICAASGRIFTYNAMGWYRQAPGKERELVARITSGGNTNYADSVKGRFTISRDNAKNTVYLQMNSLKPEDTAVYYCATGLFWFTNRYGSWGQGTQVTVSS", "polyreactivity (PSR sort gate)": "low polyreactivity"}
{"sequence": "QVQLVESGGGLVQAGGSLRLICAASGRIFYHNAMGWYRQAPGKERELDAAITWSGGSTYYADSVKGRFTISRDNAKNTVYLQMNSLKPEDTAVYYCAALWLVNHYYPSQDYDYWGQGSQVTVSS", "polyreactivity (PSR sort gate)": "high polyreactivity"}
{"sequence": "QVQLVESGGGLVQAGGSLRLICAASGRIIPSYSMGWYRQAPAKEREFVAVIRSSVDGTYYADSVKGRFTISRDYAKNTVYLHMNSLNPDDTSVYYFSADSYPFFIRNLYPVLEGEYGHWGQGTQVNVSS", "polyreactivity (PSR sort gate)": "low polyreactivity"}
{"sequence": "QVQLVESGGGLVQAGGSLRLICAASGRISGRYAMGWYRQAPGKERELVAAITSRGGRTYYADSVKGRFTISRDNAKNTVYLQMNSLKPEDTAVYYCIAVGGYWFDYWGQGTQVTVSS", "polyreactivity (PSR sort gate)": "high polyreactivity"}
{"sequence": "QVQLVESGGGLVQAGGSLRLICAASGRIYRYYAMGWYRQAPGKERELVAAITSDGRTYYADSVKGRFTISRDNAKNTVYLQMNSLKPEDTAVYYCAADHHSYRYGGYYYWGQGTQVTVSS", "polyreactivity (PSR sort gate)": "low polyreactivity"}
{"sequence": "QVQLVESGGGLVQAGGSLRLICAASGRTFDGYVMGLYRQAPGKERELVASIRGTGSTYYADSVKGRFTISRENAKNTVYLQMNSLKPEDTAVYYCAARPGYAYDWGQGTQVTVSS", "polyreactivity (PSR sort gate)": "high polyreactivity"}
{"sequence": "QVQLVESGGGLVQAGGSLRLICAASGRTFDLYAMGWCRQAPGKEREFVAAITKGGGSTYYADSVKGRFTISRDNAKNTVYLQMNSLKPEDTAVYYCAARKYKRIYRISSGIGYYWGQGTQVTVSS", "polyreactivity (PSR sort gate)": "high polyreactivity"}
{"sequence": "QVQLVESGGGLVQAGGSLRLICAASGRTFNWNAMGWYRQAPGKERELVAAITSGGNTYYADSVKGRFTISRDNAKNTVYLQMNSLKPEDTAVYYCAKVTYEGGYRYNYWGQGTQVTVSS", "polyreactivity (PSR sort gate)": "high polyreactivity"}
{"sequence": "QVQLVESGGGLVQAGGSLRLICAASGRTFQYYAMGWYRQAPGKERELVAAITSGGSTYYADSVKGRFTISRDNAKNTVYLQMNSLKPEDTAVYYCAATFYYSGHDDYWGQGTQVTVSS", "polyreactivity (PSR sort gate)": "low polyreactivity"}
{"sequence": "QVQLVESGGGLVQAGGSLRLICAASGRTFRSYAMGWYRQAPGKERELVAAISWSGGSTYYADSVKGRFTISRDNAKNTVYLQMNSLKPVDTAVYYCAAEVYYTYVYILDYWGQGTQVTVSS", "polyreactivity (PSR sort gate)": "high polyreactivity"}
{"sequence": "QVQLVESGGGLVQAGGSLRLICAASGRTFSVNDMGWYRQAPGKERELVAAISFSGGSTYYADSVKGRFTISRDNAKNTVYLQMNSLKPEDTAVYYCAAEAYPSWFYVITGFGIYDYWGQGTQVTVSS", "polyreactivity (PSR sort gate)": "high polyreactivity"}
{"sequence": "QVQLVESGGGLVQAGGSLRLICAASGRTFSYYAMGWYRQAPGKERELVATIRFSGGGTYYADSVKGRFTISRDNAKNTVYLQMNSLKPEDTAVYYCNADSIDPFLYDYWGQGTQVTVSS", "polyreactivity (PSR sort gate)": "low polyreactivity"}
{"sequence": "QVQLVESGGGLVQAGGSLRLICAASGRTFVPYAMGWYRQAPGKERELVAAINSGGSTYYADSVKGRFTSSRDNAKNTVYLQMNSLKPADTAVYDCAAEYWNSRFSYAYGYWGQGTQVTVSS", "polyreactivity (PSR sort gate)": "high polyreactivity"}
{"sequence": "QVQLVESGGGLVQAGGSLRLICAASGRTFVYNTMGWYRQAPGKERELVAAITDRGTSTYYADSVKGRFTISRDNAKNPVYLLLNSLNPEDTAVYYWAKDWLVTEFDYWGQGTQVTVSS", "polyreactivity (PSR sort gate)": "low polyreactivity"}
{"sequence": "QVQLVESGGGLVQAGGSLRLICAASGRTFWSYARGWSRQAPGKERQLVAAIRTSDGITYYADSVKGRFTISRDTAKNTVYLQMNSLKPEDTAVYYCAAENWYKYDYWGQGTQVTVSS", "polyreactivity (PSR sort gate)": "low polyreactivity"}
{"sequence": "QVQLVESGGGLVQAGGSLRLICAASGRTFYVYAMGWYRQAPGKEREFVARITSNGGSTTYADSVKGRFTISRDNAKNTVYLQMNSLKPDDTAVYYCNADYDPEDMDYWGQGTQVTVSS", "polyreactivity (PSR sort gate)": "low polyreactivity"}
{"sequence": "QVQLVESGGGLVQAGGSLRLICAASGRTFYYYAIGWYRQAPGKERELVASISYSAGRTYADSVKGRFTSSRDNAKNTVYLQMNSLKPEDTAVYYCNSDVTTVPYTNDYWGQGTQVTVSS", "polyreactivity (PSR sort gate)": "high polyreactivity"}
{"sequence": "QVQLVESGGGLVQAGGSLRLICAASGRTIWSNAMGRYRHAPGKEWEFVAGISQDGTSRYYADSVKGRFTISRDNAKNTVYLQMNSLKPEDTAVYYCAARSSFRRRSGPTPYGFDYWGQGTQVTVSS", "polyreactivity (PSR sort gate)": "high polyreactivity"}
{"sequence": "QVQLVESGGGLVQAGGSLRLICAASGRTLWSNAMGWYRQAPGKEMELFATISRGGGSTSYADSVKGRFTISRYNAKKTVYLQLYSLKPEDTSVYYCNNYPYIQRTWWYDYWGQGTQVTVSS", "polyreactivity (PSR sort gate)": "high polyreactivity"}
{"sequence": "QVQLVESGGGLVQAGGSLRLICAASGRTSYIDAMGWYREAPGKERELVARIRSGGSTNYADSVKGRFTISRDNAKNPVYVQMNSLKPEDTAVYYCNADFAFSRKYQANPYSAYDYWGQGTQVTVSS", "polyreactivity (PSR sort gate)": "high polyreactivity"}
{"sequence": "QVQLVESGGGLVQAGGSLRLICAASGSIFARYAMGWYRQAPGKERELVAAITGRGGSTYYADSVKGRFTISRDNAKNTVYLQMNSLKPEDTAVYYCNAVGHTSIRRALDILDYWGQGTQVTVSS", "polyreactivity (PSR sort gate)": "high polyreactivity"}
{"sequence": "QVQLVESGGGLVQAGGSLRLICAASGSIFCYAMGWYRQAPGKERELVAGISRGGSTYYADSVKGRFTISRDNAKNTGYLKMNSLKPEDTAVYYCNTAGYYGTPYNYWGQGTQVTVSS", "polyreactivity (PSR sort gate)": "low polyreactivity"}
{"sequence": "QVQLVESGGGLVQAGGSLRLICAASGSIFDYYTRGWYRQAPGKERELVASITQSGGSTYYADSVKGRFTISRDNGKNTVYLQMNSLKPEDTAVYYCAADFSIVKMDYWGQGTQVTVSS", "polyreactivity (PSR sort gate)": "low polyreactivity"}
{"sequence": "QVQLVESGGGLVQAGGSLRLICAASGSIFGHNAMGWYRQAPGKERELVAAISRGTRTNYADSVKGRFTISRDNEKNTVYLQMNSLKPEDTAVYYCNLQPGRGPYVGRKYGYWGQGTQVTVSS", "polyreactivity (PSR sort gate)": "high polyreactivity"}
{"sequence": "QVQLVESGGGLVQAGGSLRLICAASGSIFGSNAMGWYRQAPGKEREFVAVITWRVGDTYYADSVKGRFTISRDNAKNTVYLQMKSLKPEDTAVYYCNVDWKVYGAPDYRIAWKYDYWGQGTQVTVSS", "polyreactivity (PSR sort gate)": "low polyreactivity"}
{"sequence": "QVQLVESGGGLVQAGGSLRLICAASGSIFGVYAMGWYSQAPGKERELVATITRGGSTYYADSVKGRFTISRDNAKNTGYLQMNSLKPEDTSVYYGARAPVYFRHKYYYWGQGTQVTVSS", "polyreactivity (PSR sort gate)": "high polyreactivity"}
{"sequence": "QVQLVESGGGLVQAGGSLRLICAASGSIFLTNAMGWYRQAPGKEREFVAAIDWGCTITYYADSVKGRFTISRDNAKNTVYLQMNSLKPEDTAVYYCGADPTYPYGYWGQGTQVSVSS", "polyreactivity (PSR sort gate)": "low polyreactivity"}
{"sequence": "QVQLVESGGGLVQAGGSLRLICAASGSIFNAYAMGWYRQAPGKEREFVAAITGGGTYYADSVKGRFTISRDNAKNTVYLQMNSLKPEDTAVYYCNADYGTSRHTFWDYESWGQGTQVTVSS", "polyreactivity (PSR sort gate)": "low polyreactivity"}
{"sequence": "QVQLVESGGGLVQAGGSLRLICAASGSIFNGYAMGWYSQAPGKERELVADIRSGGSTYYADSVKGRFTISRDNAKNTVYLQMNSLKPEDTAVYYCAADTITDGYDYWGQGTQVTVSS", "polyreactivity (PSR sort gate)": "low polyreactivity"}
{"sequence": "QVQLVESGGGLVQAGGSLRLICAASGSIFNGYVMGWYRQAPGKERELVASINRGGTTNYADSVKGRFTISRDNAKNTVYLLMNSLKPEETAVYYCAVDDDANSLGGYYVLFDYWGQGTQVTVSS", "polyreactivity (PSR sort gate)": "low polyreactivity"}
{"sequence": "QVQLVESGGGLVQAGGSLRLICAASGSIFPSYAMGWYRQAPGKERELVAAISVSGGRTYYADSVKGRFTISRDNAKYSVYLQMNSLKPEDTAVYYCATVGKQKYDAKYGYWGQGTQVTVSS", "polyreactivity (PSR sort gate)": "high polyreactivity"}
{"sequence": "QVQLVESGGGLVQAGGSLRLICAASGSIFRYYAMGWYRQAPGKERELVAVITRSSSTYYADSVKGRFTISRDNAKNTVYLQMNSLKPEDTAVYDCAARYRSGAAGYNYWGQGTQVTVSS", "polyreactivity (PSR sort gate)": "high polyreactivity"}
{"sequence": "QVQLVESGGGLVQAGGSLRLICAASGSIFSTNTKGWYRQAPGKERELVAAISISGGSTHYADSVKGRFTISRDNAKNPVYLQMNSLKPEYTAVYYCAADLWYYAYSYDYWGRGTQVTVSS", "polyreactivity (PSR sort gate)": "high polyreactivity"}
{"sequence": "QVQLVESGGGLVQAGGSLRLICAASGSIFSYYAMGWYIKAPGKERELVAVINSGGRTNYADSVKGRFTISRDNAKNTVYVQMNSLKPEDTAVYYCAAQCYFVERAGRYYRGEYWGQGTQVTVSS", "polyreactivity (PSR sort gate)": "high polyreactivity"}
{"sequence": "QVQLVESGGGLVQAGGSLRLICAASGSIFTYYAMGWYRQAPGKDRDLVAAINWSGGSTYYADSVKGRFTISRDNAKNTVYLQINSLNPEDTAVYYCSNDYYARRHSPRYDYWGQGTQVTVSS", "polyreactivity (PSR sort gate)": "low polyreactivity"}
{"sequence": "QVQLVESGGGLVQAGGSLRLICAASGSIFVNYAMGWYRQAPGKERELVAAITRSGGGTYYADSVKGRFTISRDNAKNTVYLQMNSLKPEVTAVYYCAARLGYAGNRDGYWGQGTQVTVSS", "polyreactivity (PSR sort gate)": "high polyreactivity"}
{"sequence": "QVQLVESGGGLVQAGGSLRLICAASGSIFYQNAMVGYRQAPGKERELVAAIRSRGGSTYYADSVKGRFTISRDNATNTVYLQMNSLKPEDTAVYYCNKLSRTTSYTYNYWGQGTQVTVSS", "polyreactivity (PSR sort gate)": "low polyreactivity"}
{"sequence": "QVQLVESGGGLVQAGGSLRLICAASGSIFYYYAMVWYRQAPGKERELVAAISSGGSTNYADSVKGRFTISRDNAKNTVYLQMNSLKPEDTAVYYCAADYRAQYVVWYTYDYWGQGTQVTVSS", "polyreactivity (PSR sort gate)": "low polyreactivity"}
{"sequence": "QVQLVESGGGLVQAGGSLRLICAASGSILGTYAMGWYRQAPGKERELVAAITLSTDGTYYADSVKGRFTISRDNAKNTVYLQMNCLKPEDTAVYYFAAPWNWRWVTQWGYYVRADYYWGQGSQVTVSS", "polyreactivity (PSR sort gate)": "low polyreactivity"}
{"sequence": "QVQLVESGGGLVQAGGSLRLICAASGSILNWYAMGWYRQAPGKERELVAAINRGTGTYYADSVKGRFTISRDNAKNTVYLQMISLKTEDTAVYYCAAEWYVYDFEFYYWGQGTQVTVSS", "polyreactivity (PSR sort gate)": "high polyreactivity"}
{"sequence": "QVQLVESGGGLVQAGGSLRLICAASGSILQRNAMGWYRPAPGKERELVAAISWSGDNTYYADSVKGRFTISRDNAKNTVYLQMNSVKPEDTAVYYCATDADIYFQEYDYWGQGTQVTVSS", "polyreactivity (PSR sort gate)": "low polyreactivity"}
{"sequence": "QVQLVESGGGLVQAGGSLRLICAASGSILVSYARGWYRQAPGKERELVAAITSGGRTKYADSVKGRFTISRDNAKNTVYLQMNSLKPEDNAVYYCAADDPLSYQFDYWGQGTQVTVSS", "polyreactivity (PSR sort gate)": "high polyreactivity"}
{"sequence": "QVQLVESGGGLVQAGGSLRLICAASGSISVVNMGWYRQSPGKERELVASITSSGSTTYADSVKGRFTISRDNAKNTVYLQMNSVKPEDTAVYYCASDVGTDYTYQHPAGAAYDYWGQGTQVTVSS", "polyreactivity (PSR sort gate)": "low polyreactivity"}
